In paper PMC4260256, “A novel serine hydroxymethyltransferase from Arthrobacter nicotianae: characterization and improving catalytic efficiency by rational design” (BMC Biotechnology, 2014) one finds Km and kcat/Km data, which are given here for one substance.

This data set relates to NC(C(=O)O)C(O)c1ccccc1. Nature of the data set: purified protein. The following applies: pH 7.8; 40.0 °C.

On to “AnSHMT (Glutamicibacter nicotianae; I249L)”, for which the Km (as a rule, the concentration of substrate that gives half-maximal velocity) was found to be 61.95 ± 0.13 mM and the catalytic efficiency (kcat/Km) (in general, the second-order rate constant that governs catalysis at low substrate concentration) amounted to 76.8 M⁻¹ s⁻¹.
